From the RNAGym collection of RNA variant scans (doi:10.1073/pnas.2313332121)

B1: TPR t1 (parent)
chain: GACCAAUCUGCCCUCAGAGCUCGAGAACAUCUUCGGAUGCAGAGGAGGCAGGCUUCGGUGGCGCGAUAGCGCCAACGUCCUCAACCUCCAAUGCAUCCCACCACAUGAUGAUGCCUGAAGAGCCUUGGUUUUUUG

Variants of: B1
Test: polymerase ribozyme fitness, log enrichment relative to wild type (log ratio); higher = more active; in vitro selection for triplet polymerase activity
Summary of the method: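 Both subunits of a heterodimeric triplet polymerase ribozyme were given their own mutant library, built by PCR and transcribed. Each library was annealed with a biotinylated primer, the partner subunit and triplets, incubated frozen at −7 °C, and its extended constructs gel-excised, captured on streptavidin beads and amplified by RT-PCR, all in one round done in triplicate. Fitness is the logarithm of genotype enrichment relative to wild-type enrichment, with replicates averaged by inverse-variance weighting. That logarithm is base 2, and Illumina-sequenced genotypes needed ≥10 input reads and ≥1 read per output.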

In order of falling “polymerase ribozyme fitness (log ratio)” value:
1. GACCAAUCUGCCCUCAGAGCUCGAGAACAUCUUCGGAUGCAGAGGAGACAGGCUUCGGUGGCGCGAUAGCGCCAACGUCCUCAACCUCCAAUGCAUCCCACCACAUGAUGAAGCCUGAAGAGCCUUGGUUUUUUG [G48A U112A]  0.917
2. GACCAAUCUGCCCUCAGAGCUCGAGAACAUCUUCGGAUGCAGAGGAGCCAGGCUUCGGUGGCGCGAUAGCGCCAACGUCCUCAACCUCCGAUGCAUCCCACCACAUGAUGAUGCCUGAAGAGCCUUGGUUUUUUG [G48C A90G]  0.432
3. GACCAAUCUGCCCUCAGAGCUCGAGAACAUCUUCGGAUGCAGAGGAGACAGGCUUCGGUGGCGCGAUAGCGCCAACGUCCUCAACCUCCAAUGCAUCCCACCACAUGAUGACGCCUGAAGAGCCUUGGUUUUUUG [G48A U112C]  0.294
4. GACCAAUCUGCCCUCAGAGCUCGAGAACAUCUUCGGAUGCAGAGGAGACAGGCUUCGGUGGCUCGAUAGCGCCAACGUCCUCAACCUCCAAUGCAUCCCACCACAUGAUGAUGCCUGAAGUGCCUUGGUUUUUUG [G48A G63U A121U]  0.283
5. GACCAAUCUGCCCUCAGAGCUCGAGAACAUCUUCGGAUGCAGAGGAGACAGGCUUCGGUGUCGCGAUAGCGCCAACGUCCUCAACCUCCAAUGCAUCCCACCACAUGAUGAUGCCUGAAGAGCCUUGGUUUUUUG [G48A G61U]  -0.0763
6. GACCAAUCUGCCCUCAGAGCUCGAGAACAUCUUCGGAUGCAGAGGAGCCAGGCUUCGGUGGCGCGAUAGCGCCAACGUCCUCAACCUCCUAUGCAUCCCACCACAUGAUGAAGCCUGAAGAGCCUUGGUUUUUUG [G48C A90U U112A]  -0.162
7. GACCAAUCUGCCCUCAGAGCUCGAGAACAUCUUCGGAUGCAGAGGAGACAGGCUUCGGUGGCGCGAUACCGCCAACGUCCUCAACCUCCAAUGCAUCCCACCACAUGAUGAUGCCUGAAGAGUCUUGGUUUUUUG [G48A G69C C123U]  -0.587
8. GACCAAUCUGCCCUCAGAGCUCGAGAACAUCUUCGGAUGCAGAGGAGACAGGCUUCGGUGUCGCGAUAGCGCCAACGUCCUCAACCUCCAAUGCAUCCCACCACAUGAUGAAGCCUGAAGAGCCGUCGUUUUUUG [G48A G61U U112A U125G G127C]  -0.619
9. GACCAAUCUGCCCUCAGAGCUCGAGAACAUCUUCGGAUGCAGAGGAGACAGGCAUCGGUGGCGCGAUAGCGCCAACGUCCUCAACCUCCAAUGCAUCCCACCACAUGAUGAUGCCUGAAGAGCCUUGGUUUUUUG [G48A U54A]  -0.741
10. GACCAAUCUGCCCUCAGAGCUCGAGAACAUCUUCGGAUGCAGAGGAGACAGGCUUCGGUGGCGCGAUAGCGCCAACGUCCUCAACCUCCAAUGCAUCCCACCACAUGAUGAUGCCUGAAGAGCCUUGGUUAUUUG [G48A U131A]  -0.843
11. GACCAAUCUGCCCUCAGAGCUCGAGAACAUCUUCGGAUGCAGAGGAGACAGGCUUCGGUGGCGCGAUAGCGCCAACGUCCCCAACCUCCAAUGCAUCCCACAACAUGAUGAUGCCUGAAGCGCCUUGGUUUUUUG [G48A U81C C102A A121C]  -0.944
12. GACCAAUCUGCCCUCAGAGCUCGAGAACAUCUUCGGAUGCAGAGGAGACAGGCCACGGUGGCGCGAUAGCGCCAACGUCCUCAACCUCCAAUGAAUCCCACCACAUGAUGAUGCCUGUAGAGCCUUGGUUUUUUG [G48A U54C U55A C94A A118U]  -1.02
13. GACCAAUCUGCCCUCAGAGCUCGAGAACAUCUUCGGAUGCAGAGGAGACAGGCUUCGGUGGCCCGAUAGCGCCAACGUCCUCAACCUCCAAUGCAUCCCACCACAUGAUGAUGCCUGAAGAGCCUUGGUUUAUUG [G48A G63C U132A]  -1.12
14. GACCAAUCUGCCCUCAGAGCUCGAGAACAUCUUCGGAUGCAGAGGAGACAGGCUUCGGAGGCGCGAUAGCGCCAACGUUCUCAACCUCCAAUGCAUCCCACCACAUGAUGAUGCCUGAAGAGCCGUGGUGUUUUG [G48A U59A C79U U125G U130G]  -1.48
15. GACCAAUCUGCCCUCAGAGCUCGAGAACAUCUUCGGAUGCAGAGGAGACAGGCUUCGGUGGCGCGAUAGCGCCAACUUCCUCAACCUCCAAUGCAUCCCACCACAUGAUGAUGCCUGAAGAGCCUUGGUUUUUUU [G48A G77U G135U]  -1.78
16. GACCAAUCUGCCCUCAGAGCUCGAGAACAUCUUCGGAUGCAGAGGAGACAGGCUUCGGUGGCGCGAUAGCGCCAACGUCCUCAACCUCCAAUGCAACCCACCACAUGAUGAUGCCUGAAGAGCCUUGGUUUUUUG [G48A U96A]  -1.94
17. GACCAAUCUGCCCUCAGAGCUCGAGAACAUCUUCGGAUGCAGAGGAGCCAGGCUUCGGUGGCGCGAUAGCGCCAACGUCCUCAACCUCCUAUGCAUCCCACCACAUGAUGAGGCCUGAAGAGCCUUGGUUUUUUG [G48C A90U U112G]  -2.32
18. GACCAAUCUGCCCUCAGAGCUCGAGAACAUCUUCGGAUGCAGAGGAGACAGGCUUCGGUGGCGCGAUAGCGCCAACGUCCUCAACCUCCAAUGCAUCCCACCACAUGAUGAUGCCUGAAGAGCCUGGGUUUUUUG [G48A U126G]  -2.42
19. GACCAAUCUGCCCUCAGAGCUCGAGAACAUCUUCGGAUGCAGAGGAGACAGGCUUCGGUGGCGCGAUAGCGCCAACGUCCACAACCUCCAAUGCAUCUCACCACAUGAUGAUGCCUGAAGAGCCUUGGUUUUUUG [G48A U81A C98U]  -2.94
20. GACCAAUCUGCCCUCAGAGCUCGAGAACAUCUUCGGAUGCAGAGGAGACAGGCUUCGGUGGCGCGAUAGCGCCAACGUCCUCAACCUCCAAUGCAUCCCACCACAUGAUGAUUCCUGAAUAGCCUUGGUUUUUUG [G48A G113U G120U]  -3.65
21. GACCAAUCUGCCCUCAGAGCUCGAGAACAUCUUCGGAUGCAGAGGAGACAGGCUUCGGUGGCGCGAUACCGCCAACGUUCUCAACCUCCAAGGCAUCCCACCACAUGAUGAUGCCCGAACAGCCUUGGUUUUUUG [G48A G69C C79U U92G U116C G120C]  -7.13
